We go through one molecule from article PMC4747207 (2015).

This assay addresses GST-Skp1 (Homo sapiens (Human), UniProt P63208). The assay is described as follows: GST pull-down, Western blot.

GST-Skp1, sequence (P63208 whole entry): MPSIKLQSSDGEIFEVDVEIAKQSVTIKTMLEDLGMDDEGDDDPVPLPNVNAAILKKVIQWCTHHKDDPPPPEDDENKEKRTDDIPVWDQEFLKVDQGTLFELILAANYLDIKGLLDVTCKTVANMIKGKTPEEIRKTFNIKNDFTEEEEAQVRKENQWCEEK

B1: Recombinant human MAGE-C2 protein (protein)
chain: MPPVPGVPFRNVDNDSPTSVELEDWVDAQHPTDEEEEEASSASSTLYLVFSPSSFSTSSSLILGGPEEEEVPSGVIPNLTESIPSSPPQGPPQGPSQSPLSSCCSSFSWSSFSEESSSQKGEDTGTCQGLPDSESSFTYTLDEKVAELVEFLLLKYEAEEPVTEAEMLMIVIKYKDYFPVILKRAREFMELLFGLALIEVGPDHFCVFANTVGLTDEGSDDEGMPENSLLIIILSVIFIKGNCASEEVIWEVLNAVGVYAGREHFVYGEPRELLTKVWVQGHYLEYREVPHSSPPYYEFLWGPRAHSESIKKKVLEFLAKLNNTVPSSFPSWYKDALKDVEERVQATIDTADDATVMASESLSVMSSNVSFSE
Regarding B1, the binding result is given as “no binding”.
